Laboratory results as given in PMC7335050 (2020).

T1: BAKΔTM (human, UniProt Q16611 1-186)
T1 chain: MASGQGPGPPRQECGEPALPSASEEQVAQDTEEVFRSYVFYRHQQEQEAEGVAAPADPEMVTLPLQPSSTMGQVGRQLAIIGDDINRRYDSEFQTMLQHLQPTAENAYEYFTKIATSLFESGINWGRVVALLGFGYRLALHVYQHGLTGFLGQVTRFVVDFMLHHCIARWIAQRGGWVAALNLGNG


Molecular target: T1, BAKΔTM
Assay: SPR

Binder | Kd [µM]
MEGSDALALRLACIGDEMDVSLRAPR [BIK BH3 peptide] | > 10
NLWAAQRYGRELRRMSDEFVDSFKK [BAD BH3 peptide] | > 10
